These results are taken from patent publication US20160116473A1 (KOREA INSTITUTE OF RADIOLOGICAL AND MEDICAL SCIENCES, published 2016).

The assay addresses T1, Signal transducer and activator of transcription 3 (STAT3) (human, UniProt P40763 2-770).
T1 construct: Endogenous protein in cell lysates (co-immunoprecipitation) or in fixed cells and tissues (PLA)
In words: co-immunoprecipitation from Hep-2 and RR-Hep-2 cell lysates, immunoblot. The method, then: Cells were lysed with nonyl phenoxypolyethoxylethanol-40 (NP-40), and the lysates were then precipitated with a negative control mouse antibody (Santa Cruz Biotechnology Inc.) or a mouse monoclonal antibody against ERp57 (Santa Cruz Biotechnology Inc.). Afterwards, immune complexes were collected using protein G-Sepharose and washed 3 times, and SDS sample buffer was added thereto. The samples were size-fractionated by electrophoresis.
(In general: In western blotting, separated proteins are transferred to a membrane and probed.)

T1 sequence (P40763 2-770 limits assumed): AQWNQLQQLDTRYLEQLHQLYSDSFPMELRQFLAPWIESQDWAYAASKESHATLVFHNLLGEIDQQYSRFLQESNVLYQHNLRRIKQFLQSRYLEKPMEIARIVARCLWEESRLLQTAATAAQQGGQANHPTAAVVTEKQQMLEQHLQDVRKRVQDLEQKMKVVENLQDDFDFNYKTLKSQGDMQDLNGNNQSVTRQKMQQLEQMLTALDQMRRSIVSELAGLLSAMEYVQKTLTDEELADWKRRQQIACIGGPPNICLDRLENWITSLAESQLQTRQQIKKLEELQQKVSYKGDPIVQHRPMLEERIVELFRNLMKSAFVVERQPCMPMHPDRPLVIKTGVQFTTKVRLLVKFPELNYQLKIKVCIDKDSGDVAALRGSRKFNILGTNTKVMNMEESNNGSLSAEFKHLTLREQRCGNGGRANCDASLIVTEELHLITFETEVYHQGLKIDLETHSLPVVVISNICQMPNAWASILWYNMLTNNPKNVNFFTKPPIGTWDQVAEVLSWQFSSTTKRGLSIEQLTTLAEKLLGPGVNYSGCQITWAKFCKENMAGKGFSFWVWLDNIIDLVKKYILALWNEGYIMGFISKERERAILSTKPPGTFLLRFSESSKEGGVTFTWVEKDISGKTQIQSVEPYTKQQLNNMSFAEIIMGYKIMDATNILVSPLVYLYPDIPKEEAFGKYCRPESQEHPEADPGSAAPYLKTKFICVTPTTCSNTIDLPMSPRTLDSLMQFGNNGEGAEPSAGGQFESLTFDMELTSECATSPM

B1: ERp57 (enzyme, human, UniProt P30101 25-505, looked up)
chain: SDVLELTDDNFESRISDTGSAGLMLVEFFAPWCGHCKRLAPEYEAAATRLKGIVPLAKVDCTANTNTCNKYGVSGYPTLKIFRDGEEAGAYDGPRTADGIVSHLKKQAGPASVPLRTEEEFKKFISDKDASIVGFFDDSFSEAHSEFLKAASNLRDNYRFAHTNVESLVNEYDDNGEGIILFRPSHLTNKFEDKTVAYTEQKMTSGKIKKFIQENIFGICPHMTEDNKDLIQGKDLLIAYYDVDYEKNAKGSNYWRNRVMMVAKKFLDAGHKLNFAVASRKTFSHELSDFGLESTAGEIPVVAIRTAKGEKFVMQEEFSRDGKALERFLQDYFDGNLKRYLKSEPIPESNDGPVKVVVAENFDEIVNNENKDVLIEFYAPWCGHCKNLEPKYKELGEKLSKDPNIVIAKMDATANDVPSPYEVRGFPTIYFSPANKKLNPKKYEGGRELSDFISYLQREATNPPVIQEEKPKKKKKAQEDL
notes: Endogenous protein in cell lysates (co-immunoprecipitation) or in fixed cells and tissues (PLA); also called protein disulfide isomerase family A member 3; PDIA3
For the molecule B1, the binding result is “binds”.
